Source: the supplement of paper PMC7877785
± gives the uncertainty stated by the source.

Test: self-splicing fitness, log relative to wild type (ln ratio); higher = more splicing; Tetrahymena group I intron in knt gene, E. coli kanamycin selection, DiMSum; sequences stand for … in CUCUCU…GGAGGGAAAAGUUAUCAGGCAUGCACCUGGUAGCUAGUCUUUAAACCAAUAGAUUGCAUCGGUUUAAAAGGCAAGACCGUCAAAUUGCGGGAAAGGGGUCAACAGCCGUUCAGUACCAAGUCUCAGGGGAAACUUUGAGAUGGCCUUGCAAAGGGUAUGGUAAUAAGCUGACGGACAUGGUCCUAACCACGCAGCCAAGUCCUAAGUCAACAGAUCUUCUGUUGAUAUGGAUGCAGUUCACAGACUAAAUGUCGGUCGGGGAAGAUGUAUUCUUCUCAUAAGAUAUAGUCGGACCUCUCCUUAAUGGGAGCUAGCGGAUGAAGUGAUGCAACACUGGAGCCGCUGGGAACUAAUUUGUAUGCGAAAGUAUAUUGAUUAGUUUUGGAGUACUCGUGGUCG
Procedure, shortened: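 DiMSum derived fitness as the error-weighted combination of fold changes across replicates, kanamycin versus no kanamycin, normalised to wild type. E. coli BL21(DE3) held the library, which randomised all eight P1ex-region intron nucleotides within the knt kanamycin-resistance gene on pET-22b(+). Six replicate transformations grew overnight at 37°C or 30°C on LB agar with or without 25 μg/mL kanamycin, also containing 100 μg/mL carbenicillin, 50 μM IPTG and 0.2% rhamnose, and pooled colonies were amplicon-sequenced on an Illumina HiSeq 2500.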

Sequence	self-splicing fitness (ln) (30 °C)	self-splicing fitness (ln) (37 °C)
CAAGAGCAAUAUUACGCUAA	-3.93 ± 0.27	-1.52 ± 0.21
CAAGAGCAAUAUUACGGACG	-0.541 ± 0.074	0.217 ± 0.093
CAAGAGCAAUAUUACGGCAA	-3.01 ± 0.29	-3.03 ± 0.38
CAAGAGCAAUAUUACGUAAU	-2.63 ± 0.23	-2.7 ± 0.32
CAAGAGCAAUAUUACGUACU	-3.74 ± 0.21	-1.92 ± 0.2
CAAGAGCAAUAUUACGUAUU	-3.55 ± 0.23	-1.83 ± 0.19
CAAGAGCAAUAUUACGUUGA	-3.98 ± 0.36	-2.94 ± 0.21
CAAGAGCAAUAUUACGUUUA	-2.84 ± 0.26	-1.61 ± 0.23
CAAGAGCAAUAUUACGUUUC	-3.38 ± 0.24	-2.01 ± 0.26
CAAUAGCAAUAUUACGAGGC	-3.6 ± 0.33	-1.44 ± 0.31
CAAUAGCAAUAUUACGAUAU	-4.72 ± 0.34	-2.59 ± 0.22
CAAUAGCAAUAUUACGAUUU	-2.3 ± 0.091	-0.775 ± 0.084
CAAUAGCAAUAUUACGCAAG	-1.19 ± 0.1	-0.905 ± 0.14
CAAUAGCAAUAUUACGCCCA	-1.6 ± 0.41	–
CAAUAGCAAUAUUACGCGCC	–	-1.04 ± 0.44
CAAUAGCAAUAUUACGCUGA	-3.11 ± 0.22	-1.85 ± 0.16
CAAUAGCAAUAUUACGCUGG	-1.32 ± 0.13	-0.734 ± 0.14
CAAUAGCAAUAUUACGGACA	-2.44 ± 0.16	-1.5 ± 0.15
CAAUAGCAAUAUUACGGCAA	-3.51 ± 0.38	-1.11 ± 0.22
CAAUAGCAAUAUUACGGCCA	-3.08 ± 0.3	-1.49 ± 0.32
CAAUAGCAAUAUUACGGGAU	-3.36 ± 0.31	-2.57 ± 0.35

Sequence	self-splicing fitness (ln) (30 °C)	self-splicing fitness (ln) (37 °C)
CAAUAGCAAUAUUACGGUUG	-2.6 ± 0.12	-1.67 ± 0.12
CAAUAGCAAUAUUACGGUUU	-2.88 ± 0.13	-1.88 ± 0.15
CAAUAGCAAUAUUACGUAAC	-3.94 ± 0.35	-3.27 ± 0.43
CAAUAGCAAUAUUACGUAUC	-3.48 ± 0.15	-2.73 ± 0.18
CAAUAGCAAUAUUACGUGAG	-0.424 ± 0.076	0.678 ± 0.11
CAAUAGCAAUAUUACGUGUG	-1.72 ± 0.053	-0.748 ± 0.063
CAAUAGCAAUAUUACGUUCC	-2.6 ± 0.26	-2.13 ± 0.35
CAAUAGCAAUAUUACGUUUG	-2.52 ± 0.11	-1.52 ± 0.11
CAAUAGCAAUAUUACGUUUU	-5.04 ± 0.25	-2.5 ± 0.13
CACAAGCAAUAUUACGAACU	-3.64 ± 0.19	-2.37 ± 0.17
CACAAGCAAUAUUACGAAGC	-4.44 ± 0.28	-1.87 ± 0.19
CACAAGCAAUAUUACGACUA	-1.02 ± 0.089	-1.21 ± 0.074
CACAAGCAAUAUUACGAGGA	-3.18 ± 0.25	-2.59 ± 0.19
CACAAGCAAUAUUACGAUUG	-2.41 ± 0.064	-1.15 ± 0.075
CACAAGCAAUAUUACGCAAC	-3.27 ± 0.26	-2.27 ± 0.32
CACAAGCAAUAUUACGCCCU	-3.12 ± 0.19	-0.633 ± 0.13
CACAAGCAAUAUUACGCGGU	-3.66 ± 0.15	-2.04 ± 0.12
CACAAGCAAUAUUACGCUAG	-2.72 ± 0.13	-1.43 ± 0.1
CACAAGCAAUAUUACGCUGU	-3.78 ± 0.17	-2.57 ± 0.18
CACAAGCAAUAUUACGCUUA	-2.27 ± 0.13	-2.15 ± 0.13
CACAAGCAAUAUUACGGACG	-0.358 ± 0.046	0.611 ± 0.072
